Paper PMC3937224, “Convergence of Light and ABA Signaling on the ABI5 Promoter” (PLoS Genetics, 2014)

T1: GST-HY5 (Arabidopsis thaliana, UniProt O24646 1-168)
T1 sequence: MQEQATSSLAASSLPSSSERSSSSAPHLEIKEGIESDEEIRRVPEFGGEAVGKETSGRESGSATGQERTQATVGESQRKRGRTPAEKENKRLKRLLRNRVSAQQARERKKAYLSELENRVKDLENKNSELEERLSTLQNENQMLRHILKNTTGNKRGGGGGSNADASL

T2: 6xHis-BBX21 (STH2) (Arabidopsis thaliana, UniProt Q9LQZ7 1-331)
T2 sequence: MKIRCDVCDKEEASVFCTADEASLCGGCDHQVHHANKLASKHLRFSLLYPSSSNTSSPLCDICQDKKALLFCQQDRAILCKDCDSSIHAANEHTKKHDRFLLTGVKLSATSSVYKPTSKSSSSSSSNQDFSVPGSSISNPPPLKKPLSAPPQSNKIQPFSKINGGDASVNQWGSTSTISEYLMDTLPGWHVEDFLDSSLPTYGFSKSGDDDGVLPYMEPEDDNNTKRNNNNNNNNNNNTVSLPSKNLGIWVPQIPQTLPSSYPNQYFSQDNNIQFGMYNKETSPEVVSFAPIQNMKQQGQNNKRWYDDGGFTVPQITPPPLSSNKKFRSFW

T3: GST-ABI5 (Arabidopsis thaliana, UniProt Q9SJN0 1-442)
T3 construct: ABI5 (ABA … 5), Arabidopsis thaliana; Probably made in E. coli like GST and GST-HY5; source: purified
T3 sequence (looked up): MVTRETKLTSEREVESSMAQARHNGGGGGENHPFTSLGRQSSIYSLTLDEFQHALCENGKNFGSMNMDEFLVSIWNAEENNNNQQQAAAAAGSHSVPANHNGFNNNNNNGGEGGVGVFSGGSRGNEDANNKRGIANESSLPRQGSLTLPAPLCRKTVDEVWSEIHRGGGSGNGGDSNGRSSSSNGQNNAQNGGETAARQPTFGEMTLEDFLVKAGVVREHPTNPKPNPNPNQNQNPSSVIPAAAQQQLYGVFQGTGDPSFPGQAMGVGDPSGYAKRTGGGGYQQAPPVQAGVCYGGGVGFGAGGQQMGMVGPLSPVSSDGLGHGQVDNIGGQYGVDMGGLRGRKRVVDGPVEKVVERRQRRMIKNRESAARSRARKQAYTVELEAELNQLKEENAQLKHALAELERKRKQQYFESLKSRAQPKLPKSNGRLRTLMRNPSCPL


Tests used:
GST-HY5 = molecular target: T1, GST-HY5; test: EMSA; 0.5 ug protein; no BBX21; 10 mM Tris-HCl (pH not stated), 150 mM KCl, 1 mM DTT, 50 ng/ml poly(dI-dC), 2.5% glycerol, 0.05% NP-40, 100 mM ZnCl2 (so in the source), 0.5 ug/ml BSA, 20 min at room temperature; 6% native PAGE; settings: protein: recombinant; tags: N-terminal GST (pGEX-6P-1, printed pEGX-6P-1); chain copies: 2; label: 5' biotin; blunt (complementary oligonucleotides; second strand not seen in material)
6xHis-BBX21 (STH2) = molecular target: T2, 6xHis-BBX21 (STH2); test: EMSA; 10 mM Tris-HCl (pH not stated), 150 mM KCl, 1 mM DTT, 50 ng/ml poly(dI-dC), 2.5% glycerol, 0.05% NP-40, 100 mM ZnCl2 (so in the source), 0.5 ug/ml BSA, 20 min at room temperature; 6% native PAGE; settings: protein: recombinant; tags: 6xHis; label: 5' biotin; blunt (complementary oligonucleotides; second strand not seen in material)
GST-ABI5 = molecular target: T3, GST-ABI5; test: pull-down; 2 µg 6×His-BBX21 bound to Ni-NTA magnetic beads (2 h, 4°C), incubated overnight at 4°C with 2 µg GST or GST-ABI5; wash with 10 mM Tris pH 8.0, 100 mM NaCl, 0.1% Triton X-100, 5 mM imidazol; Western blot with anti-GST; settings: both partners purified

| Binder | binding result (GST-HY5) | binding result (6xHis-BBX21 (STH2)) | binding result (GST-ABI5) |
| --- | --- | --- | --- |
| ABI5 promoter probe (dsDNA) DNA 1: GATTCCGAACTTCCATTGGGAGTGCACGTGGACTATTCACTGCATAAGG DNA 2: CCTTATGCAGTGAATAGTCCACGTGCACTCCCAATGGAAGTTCGGAATC | binds | no binding | – |
| 6×His-BBX21 (natural protein, Arabidopsis thaliana, UniProt Q9LQZ7 1-331, looked up, BBX21 (STH2), Arabidopsis thaliana; also called 6×His-tagged BBX21; source: Escherichia coli, purified) MKIRCDVCDKEEASVFCTADEASLCGGCDHQVHHANKLASKHLRFSLLYPSSSNTSSPLCDICQDKKALLFCQQDRAILCKDCDSSIHAANEHTKKHDRFLLTGVKLSATSSVYKPTSKSSSSSSSNQDFSVPGSSISNPPPLKKPLSAPPQSNKIQPFSKINGGDASVNQWGSTSTISEYLMDTLPGWHVEDFLDSSLPTYGFSKSGDDDGVLPYMEPEDDNNTKRNNNNNNNNNNNTVSLPSKNLGIWVPQIPQTLPSSYPNQYFSQDNNIQFGMYNKETSPEVVSFAPIQNMKQQGQNNKRWYDDGGFTVPQITPPPLSSNKKFRSFW | – | – | binds |
